Holding throughout (format): biochemical
Data set [1] can be described thus: HTP-analysis of yeast culture supernatants, no challenge (MUGal hydrolysis). As to conditions: activity of the variant/activity of WT GLA (SEQ ID NO: 5), yeast supernatant. The method, boiled down:
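Activity read as 4-methylumbelliferyl α-D-galactopyranoside hydrolysis: fluorescence (355/448 nm) after sodium carbonate stop, following 30-180 min at 37° C with 2 mM MUGal stock at pH 4.6–4.8. Enzyme source is unchallenged culture supernatant of INVSc1 yeast expressing GLA variants, grown 66-84 h at 30° C.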

The nature of data set [2]: HTP-analysis of supernatants pretreated with acid (MUGal hydrolysis). As to conditions: challenge at pH 4.2; activity of the variant/activity of WT GLA (SEQ ID NO: 5); yeast supernatant. A digest of the protocol: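 Fluorescence of MUGal hydrolysis (Ex. 355 nm, Em. 448 nm) is read after sodium carbonate quench. The enzyme source is INVSc1 yeast culture supernatant, first exposed to pH 3.3-4.3 McIlvaine buffer at 37° C. for 1-3 h, then reacted at pH 4.8 for 30-180 minutes.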

Data set [3] can be described thus: HTP-analysis of supernatants pretreated with base (MUGal hydrolysis). As to conditions: challenge at pH 7.1; activity of the variant/activity of WT GLA (SEQ ID NO: 5); yeast supernatant. A digest of the protocol: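 GLA variants were secreted by transformed INVSc1 yeast grown 66-84 h at 30° C. Supernatants were exposed to neutral-to-basic buffers (pH 7.0-9.7) at 37° C for 1-18 h, then assayed with MUGal in acidic citrate/McIlvaine buffer, with fluorescence read after quenching.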

B1: 154 (protein)
chain: LDNGLARTPTMGWLHWERFMCNLDCQEEPDSCISEKLFMEMAELMVSEGWKDAGYEYLCIDDCWMAPQRDSEGRLQADPQRFPHGIRQLANYVHSKGLKLGIYADVGNKTCAGFPGSFGYYDIDAQTFADWGVDLLKFDGCYCDSLENLADGYKHMSLALNRTGRSIVYSCEWPLYMWPFQKPNYTEIRQYCNHWRNFADIDDSWKSIKSILDWTSFNQERIVDVAGPGGWNDPDMLVIGNFGLSWNQQVTQMALWAIMAAPLFMSNDLRHISPQAKALLQDKDVIAINQDPLGKQGYQLIQGDNFEVWERPLSGLAWAVAMINRQEIGGPRSYTIAVASLGKGVACNPACFITQLLPVKRTLGFYEWTSRLRSHINPTGTVLLQLENTMQMSKDLLL
modifications: Synthetic Polypeptide sequence of Variant No. 154 of mature Human GLA
Turning to B1, the “Relative Activity of GLA Variants After No Challenge (NC)” value in data set [1] was “++ (++ = >1.5 to 2.5 relative activity over WT GLA (SEQ ID NO: 5))”. For the same molecule, in data set [2], the “Relative Activity of GLA Variants After Challenge at pH 4.2” value (from here on “Relative Activity … at pH 4.2”) is “+ (+ = 0.5 to 1.5 relative activity over WT GLA (SEQ ID NO: 5))”. The “Relative Activity of GLA Variants After Challenge at pH 7.1” value (“Relative Activity … at pH 7.1” for short) in data set [3] is “++ (++ = >1.5 to 2.5 relative activity over WT GLA (SEQ ID NO: 5))”.

B2: 155 (protein)
chain: LDNGLARTPTMGWLHWERFMCNLDCQEEPDSCISEKLFMEMAELMVSEGWKDAGYEYLCIDDCWMAPQRDSEGRLQADPQRFPHGIRQLANYVHSKGLKLGIYADVGNKTCAGFPGSFGYYDIDAQTFADWGVDLLKFDGCYCDSLENLADGYKHMSLALNRTGRSIVYSCEWPLYMWPFQKPNYTEIRQYCNHWRNFADIDDSWKSIKSILDWTSFNQERIVDVAGPGGWNDPDMLVIGNFGLSWNQQVTQMALWAIMAAPLFMSNDLRHISPQAKALLQDKDVIAINQDPLGKQGYQLLQGDNFEVWERPLSGLAWAVAMINRQEIGGPRSYTIAVASLGKGVACNPACFITQLLPVKRKLGFYEWTSRLRSHINPTGTVLLQLENTMQMSKDLLL
modifications: Synthetic Polypeptide sequence of Variant No. 155 of mature Human GLA
Consider B2, for which, in data set [1], the “Relative Activity of GLA Variants After No Challenge (NC)” value is “+ (+ = 0.5 to 1.5 relative activity over WT GLA (SEQ ID NO: 5))”. The “Relative Activity … at pH 4.2” value in data set [2] is given as “+ (+ = 0.5 to 1.5 relative activity over WT GLA (SEQ ID NO: 5))”. In addition, the “Relative Activity … at pH 7.1” value in data set [3] is “+ (+ = 0.5 to 1.5 relative activity over WT GLA (SEQ ID NO: 5))”.

B3: 157 (protein)
chain: LDNGLARTPTMGWLHWERFMCNLDCQEEPDSCISEKLFMEMAELMVSEGWKDAGYEYLCIDDCWMAPQRDSEGRLQADPQRFPHGIRQLANYVHSKGLKLGIYADVGNKTCAGFPGSFGYYDIDAQTFADWGVDLLKFDGCYCDSLENLADGYKHMSLALNRTGRSIVYSCEWPLYMWPFQKPNYTEIRQYCNHWRNFADIDDSWKSIKSILDWTSFNQERIVDVAGPGGWNDPDMLVIGNFGLSWNQQVTQMALWAIMAAPLFMSNDLRHISPQAKALLQDKDVIAINQDPLGKQGYQLRQGDNFEVWERPLSGLAWAVAMINRQEIGGPRSYTIAVASLGKGVACNPACFITQLLPVKRKLGFYEWTSVLRSHINPTGTVLLQLENTMQMSKDLLL
modifications: Synthetic Polypeptide sequence of Variant No. 157 of mature Human GLA
For the molecule B3, the “Relative Activity of GLA Variants After No Challenge (NC)” value in data set [1] is listed as “++ (++ = >1.5 to 2.5 relative activity over WT GLA (SEQ ID NO: 5))”. In addition, in data set [2], the “Relative Activity … at pH 4.2” value is “+ (+ = 0.5 to 1.5 relative activity over WT GLA (SEQ ID NO: 5))”. For the same molecule, the “Relative Activity … at pH 7.1” value in data set [3] is recorded as “++ (++ = >1.5 to 2.5 relative activity over WT GLA (SEQ ID NO: 5))”.

B4: 159 (protein)
chain: LDNGLARTPTMGWLHWERFMCNLDCQEEPDSCISEKLFMEMAELMVSEGWKDAGYEYLCIDDCWMAPQRDSEGRLQADPQRFPHGIPQLANYVHSKGLKLGIYADVGNKTCAGFPGSFGYYDIDAQTFADWGVDLLKFDGCYCDSLENLADGYKHMSLALNRTGRSIVYSCEWPLYMWPFQKPNYTEIRQYCNHWRNFADIDDSWKSIKSILDWTSFNQERIVDVAGPGGWNDPDMLVIGNFGLSWNQQVTQMALWAIMAAPLFMSNDLRHISPQAKALLQDKDVIAINQDPLGKQGYQLRQGDNFEVWERPLSGLAWAVAMINRQEIGGPRSYTIAVASLGKGVACNPACFITQLLPVKRKLGFYEWTSRLRSHINPTGTVLLQLENTMQMSKDLLR
modifications: Synthetic Polypeptide sequence of Variant No. 159 of mature Human GLA
For B4, the “Relative Activity of GLA Variants After No Challenge (NC)” value in data set [1] was “+ (+ = 0.5 to 1.5 relative activity over WT GLA (SEQ ID NO: 5))”. In addition, in data set [2], the “Relative Activity … at pH 4.2” value is reported as “+ (+ = 0.5 to 1.5 relative activity over WT GLA (SEQ ID NO: 5))”. Also, in data set [3], the “Relative Activity … at pH 7.1” value was “+ (+ = 0.5 to 1.5 relative activity over WT GLA (SEQ ID NO: 5))”.

B5: 156 (protein)
chain: LDNGLARTPTMGWLHWERFMCNLDCQEEPDSCISEKLFMEMAELMVSEGWKDAGYEYLCIDDCWMAPQRDSEGRLQADPQRFPHGIRQLANYVHSKGLKLGIYADVGNKTCAGFPGSFGYYDIDAQTFADWGVDLLKFDGCYCDSLENLADGYKHMSLALNRTGRSIVYSCEWPLYMWPFQKPNYTEIRQYCNHWRNFADIDDSWKSIKSILDWTSFNQERIVDVAGPGGWNDPDMLVIGNFGLSWNQQVTQMALWAIMAAPLFMSNDLRHISPQAKALLQDKDVIAINQDPLGKQGYQLRQGDNFEVWERPLSGLAWAVAMINRQEIGGPRSYTIAVASLGKGVACNPACFITQLLPVKRKLGFYEWTSSLRSHINPTGTVLLQLENTMQMSKDLLL
modifications: Synthetic Polypeptide sequence of Variant No. 156 of mature Human GLA
For the molecule B5, in data set [1], the “Relative Activity of GLA Variants After No Challenge (NC)” value is “++ (++ = >1.5 to 2.5 relative activity over WT GLA (SEQ ID NO: 5))”. Besides, the “Relative Activity … at pH 4.2” value in data set [2] was “+ (+ = 0.5 to 1.5 relative activity over WT GLA (SEQ ID NO: 5))”. Moreover, the “Relative Activity … at pH 7.1” value in data set [3] was “++ (++ = >1.5 to 2.5 relative activity over WT GLA (SEQ ID NO: 5))”.

B6: 158 (protein)
chain: LDNGLARTPTMGWLHWERFMCNLDCQEEPDSCISEKLFMEMAELMVSEGWKDAGYEYLCIDDCWMAPQRDSEGRLQADPQRFPHGIKQLANYVHSKGLKLGIYADVGNKTCAGFPGSFGYYDIDAQTFADWGVDLLKFDGCYCDSLENLADGYKHMSLALNRTGRSIVYSCEWPLYMWPFQKPNYTEIRQYCNHWRNFADIDDSWKSIKSILDWTSFNQERIVDVAGPGGWNDPDMLVIGNFGLSWNQQVTQMALWAIMAAPLFMSNDLRHISPQAKALLQDKDVIAINQDPLGKQGYQLRQGDNFEVWERPLSGLAWAVAMINRQEIGGPRSYTIAVASLGKGVACNPACFITQLLPVKRKLGFYEWTSRLRSHINPTGTVLLQLENTMQMSKDLLL
modifications: Synthetic Polypeptide sequence of Variant No. 158 of mature Human GLA
Take B6: the “Relative Activity of GLA Variants After No Challenge (NC)” value in data set [1] was “++ (++ = >1.5 to 2.5 relative activity over WT GLA (SEQ ID NO: 5))”. Moreover, the “Relative Activity … at pH 4.2” value in data set [2] is “+ (+ = 0.5 to 1.5 relative activity over WT GLA (SEQ ID NO: 5))”. Besides, the “Relative Activity … at pH 7.1” value in data set [3] is “++ (++ = >1.5 to 2.5 relative activity over WT GLA (SEQ ID NO: 5))”.

The values are drawn from patent US11278600B2, “Human alpha-galactosidase variants” (Codexis, Inc., priority 2014, dated 2022).
